Data taken from patent publication US20030091584A1 (AstraZeneca / MedImmune, published 2003).
Changes are numbered by the printed parent chain. Several values for one entry are separate records, joined by “and”; a condition that tells them apart may be missing. Identical values can stand only once.

T1: RSV F glycoprotein (NUF4) (respiratory syncytial virus)
T1 chain 1: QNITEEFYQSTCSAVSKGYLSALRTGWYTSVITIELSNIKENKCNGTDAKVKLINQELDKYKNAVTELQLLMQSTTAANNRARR
T1 chain 2: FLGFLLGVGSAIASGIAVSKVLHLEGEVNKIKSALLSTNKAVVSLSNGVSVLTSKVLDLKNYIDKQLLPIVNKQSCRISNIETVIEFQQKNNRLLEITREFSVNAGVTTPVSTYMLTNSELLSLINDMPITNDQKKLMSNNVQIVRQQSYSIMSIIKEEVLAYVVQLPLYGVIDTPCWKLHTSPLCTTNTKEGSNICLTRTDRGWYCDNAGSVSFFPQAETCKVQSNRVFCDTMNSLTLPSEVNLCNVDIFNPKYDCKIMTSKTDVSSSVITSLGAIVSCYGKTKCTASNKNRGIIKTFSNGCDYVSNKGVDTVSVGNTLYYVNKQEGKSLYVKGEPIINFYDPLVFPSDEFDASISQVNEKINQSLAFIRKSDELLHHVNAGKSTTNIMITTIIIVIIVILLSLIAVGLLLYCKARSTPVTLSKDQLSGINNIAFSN

B1: SYNAGIS® (monoclonal antibody) (antibody, V domains shown)
VH: QVTLRESGPALVKPTQTLTLTCTFSGFSLSTSGMSVGWIRQPPGKALEWLADIWWDDKKDYNPSLKSRLTISKDTSKNQVVLKVTNMDPADTATYYCARSMITNWYFDVWGAGTTVTVSS
VL: DIQMTQSPSTLSASVGDRVTITCKCQLSVGYMHWYQQKPGKAPKLLIYDTSKLASGVPSRFSGSGSGTEFTLTISSLQPDDFATYYCFQGSGYPFTFGGGTKLEIK
notes: also called SYNAGIS ®/SYNAGIS ® (HC/LC)
B2: A13c4 (Fab fragment) (Fab, V domains shown)
VH: B1 VH with S32A, D57G, D60S, S67D, S100D, T103F, W105F, A112Q
VL: B1 VL with K24S, C25L, Q26S, L27S, S28R, S51M, K52Y, L53Q, A54S, L103V
notes: Fab
B3: A4B4 (monoclonal antibody) (antibody, V domains shown)
VH: B1 VH with S32A, D60H, S67D, S100D, T103F, W105F, A112Q
VL: B1 VL with K24S, C25A, Q26S, L27S, S28R, S51F, K52F, A54D
notes: mAb; also called A4B4/A4B4 (HC/LC)
B4: A13c4 (monoclonal antibody) (antibody, V domains shown)
VH: B1 VH with S32A, D57G, D60S, S67D, S100D, T103F, W105F, A112Q
VL: B1 VL with K24S, C25L, Q26S, L27S, S28R, S51M, K52Y, L53Q, A54S, L103V
notes: mAb with framework and constant regions of SYNAGIS
B5: A17d4 (monoclonal antibody) (antibody, V domains shown)
VH: B1 VH with S32A, D57G, D60S, S67D, S100D, T103F, W105F, A112Q
VL: B1 VL with K24L, C25P, Q26S, L27S, S28R, S51M, K52Y, L53Q, G90F
notes: as for B4

Key:
[1] = molecular target: T2, F protein of wild type RSV A/Long (respiratory syncytial virus strain …, UniProt P12568 26-574); assay: cell-based or functional assay
[2] = molecular target: T3, F protein of RSV MARM with K272Q, N262K (respiratory syncytial virus strain …, UniProt P12568 26-574); assay: IFA on MARM-infected HEp-2 cells
T3 construct: whole, on cells; also called MARM #13; MARM 13

[3] = molecular target: T1, RSV F glycoprotein (NUF4); assay: BIAcore, mAb vs NUF4 (1:1)
[4] = molecular target: T1, RSV F glycoprotein (NUF4); assay: BIAcore, mAb vs NUF4 (2:1)
Bac-F = molecular target: T4, Bac-F; assay: BIAcore, mAb vs Bac-F (1:1)
T4 construct: Construct and strain not described

[5] = molecular target: T2, F protein of wild type RSV A/Long; assay: cell-based or functional assay; remark: listed apart in the source
[6] = molecular target: T5, F protein of RSV A/Long MARM with K272M (respiratory syncytial virus strain …, UniProt P12568 26-574); assay: IFA on MARM-infected HEp-2 cells
T5 construct: whole, on cells; Seven independent isolates with the same change are kept as one molecule; also called MARM B2; MARM B3

[7] = molecular target: T6, F protein of RSV A/Long MARM with K272N (respiratory syncytial virus strain …, UniProt P12568 26-574); assay: IFA on MARM-infected HEp-2 cells
T6 construct: whole, on cells; also called MARM B1

[8] = molecular target: T7, F protein of RSV A/Long MARM with K272T (respiratory syncytial virus strain …, UniProt P12568 26-574); assay: IFA on MARM-infected HEp-2 cells
T7 construct: whole, on cells; also called MARM B7; MARM B10

[9] = molecular target: T8, F protein of RSV A/Long MARM with K272Q (respiratory syncytial virus strain …, UniProt P12568 26-574); assay: IFA on MARM-infected HEp-2 cells
T8 construct: whole, on cells; also called MARM B9; B9

[10] = molecular target: T9, F protein of RSV A/Long MARM with K272E (respiratory syncytial virus strain …, UniProt P12568 26-574); assay: IFA on MARM-infected HEp-2 cells
T9 construct: whole, on cells; also called MARM #6; MARM #9

[11] = molecular target: T10, F protein of RSV A/Long MARM with K272E, N276Y (respiratory syncytial virus strain …, UniProt P12568 26-574); assay: IFA on MARM-infected HEp-2 cells
T10 construct: whole, on cells; also called MARM #10; MARM 10

[12] = molecular target: RSV F protein (immobilized on the BIAcore sensor chip) (respiratory syncytial virus); assay: BIAcore, immobilized F protein;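 further: fab fragments as analytes binding F protein coupled to the chip via EDC/NHS chemistry, with blank surface signal subtracted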
[13] = molecular target: T1, RSV F glycoprotein (NUF4); assay: ITC, NUF4 titrated into antibody
[14] = molecular target: T1, RSV F glycoprotein (NUF4); assay: ITC, NUF4 titrated into antibody, 35 °C (1/Kb)
[15] = molecular target: T1, RSV F glycoprotein (NUF4); assay: ITC, NUF4 titrated into antibody, 35 °C

Binder	EC50 (nM), in vitro microneutralization of RSV Long [1]	binding result [2]	Kd [3]	Kd [4]	Kd (Bac-F)	Mean IC50 (Control), RSV microneutralization [5]	Mean IC50 (Curve), RSV microneutralization [5]	binding result [10]	binding result [11]	Fold Difference (Control IC50) [5]	Fold Difference (Curve IC50) [5]	ΔHb (binding enthalpy) [13]	koff [3]	kon [3]	number in parentheses after KD (fold against SYNAGIS = 1) [3]	koff [4]	kon [4]	number in parentheses after KD (fold against SYNAGIS = 1) [4]	Kd [14]	Ka [15]	also measured
B1	3.57 nM	no binding (tested: 250 ng/ml)	8.7 nM	312 nM	3.9 nM	0.535 µg/mL	0.453 µg/mL	no binding (tested: 250 ng/ml)	no binding (tested: 250 ng/ml)	–	–	–	–	–	–	–	–	–	–	–	binding result [6]: no binding (tested: 250 ng/ml); binding result [7]: no binding (tested: 250 ng/ml); binding result [8]: no binding (tested: 250 ng/ml); binding result [9]: no binding (tested: 250 ng/ml)
B2	0.52 nM	–	–	–	–	0.0258 µg/mL	0.0264 µg/mL	–	–	21 fold	17 fold	–	–	–	–	–	–	–	–	–	koff [12]: 0.00028 s⁻¹; kon [12]: 781000 M⁻¹ s⁻¹ and 735000 M⁻¹ s⁻¹
B3	–	no binding (tested: 250 ng/ml)	0.57 nM	2 nM	0.02 nM	0.0154 µg/mL	0.0171 µg/mL	no binding (tested: 250 ng/ml)	no binding (tested: 250 ng/ml)	35 fold	27 fold	92.8 kJ/mol	0.000282 s⁻¹	496000 M⁻¹ s⁻¹	15 fold	0.000401 s⁻¹	203000 M⁻¹ s⁻¹	156 fold	~3.7 nM	2.69e+08 M⁻¹	koff (Bac-F): 1.06e-05 s⁻¹; kon (Bac-F): 434000 M⁻¹ s⁻¹; number in parentheses after KD (fold against SYNAGIS = 1) (Bac-F): 195 fold
B4	–	–	0.75 nM	0.7 nM	–	0.0375 µg/mL	0.0376 µg/mL	–	–	14 fold	12 fold	67 kJ/mol	0.000272 s⁻¹	365000 M⁻¹ s⁻¹	12 fold	0.000225 s⁻¹	320000 M⁻¹ s⁻¹	446 fold	9 nM	1.07e+08 M⁻¹	–
B5	–	–	0.73 nM	1.11 nM	–	0.0354 µg/mL	0.0342 µg/mL	–	–	15 fold	13 fold	68 kJ/mol	0.000362 s⁻¹	499000 M⁻¹ s⁻¹	12 fold	0.000292 s⁻¹	264000 M⁻¹ s⁻¹	281 fold	13 nM	7.5e+07 M⁻¹	–
